The record followed here is US20230127946A1 (SUZHOU PRO HEAL PHARMACEUTICALS TECHNOLOGY, published 2023).

The target of one assay is IGF-1R on MCF-7 cells (UniProt P08069 31-1367, limits assumed). Description: cell-based or functional assay.
The next assay concerns the target T1, Human IGF-1R protein (human, UniProt P08069 31-932).
T1 construct: Bought protein; also called human IGF-1R (ARCO, No. IGR-H5229)
Kind of assay: BLI (Octet RED96), antibody captured on AHC biosensor, IGF-1R in solution, 1:1 model. From the text:
After 14 days of culture, the culture supernatant was collected by centrifugation, and purify the antibodies with affinity purification column. Octet RED96 protein interaction workstation was used to detect the affinity of the above purified antibodies with human IGF-1R (Human IGF-1R, ARCO, No. IGR-H5229) separately. Biosensor AHC (18-5060) was used to capture the samples, and then the captured samples were compared with human IGF-1R. The dynamics of binding and dissociation of […] were detected. Dynamics uses 1:1 combined model for fitting analysis. The brief action steps are: protein loading for 200 s, binding for 180 s, dissociation for 300 s, regeneration for 30 s.

Chain of IGF-1R on MCF-7 cells (P08069 31-1367 limits assumed): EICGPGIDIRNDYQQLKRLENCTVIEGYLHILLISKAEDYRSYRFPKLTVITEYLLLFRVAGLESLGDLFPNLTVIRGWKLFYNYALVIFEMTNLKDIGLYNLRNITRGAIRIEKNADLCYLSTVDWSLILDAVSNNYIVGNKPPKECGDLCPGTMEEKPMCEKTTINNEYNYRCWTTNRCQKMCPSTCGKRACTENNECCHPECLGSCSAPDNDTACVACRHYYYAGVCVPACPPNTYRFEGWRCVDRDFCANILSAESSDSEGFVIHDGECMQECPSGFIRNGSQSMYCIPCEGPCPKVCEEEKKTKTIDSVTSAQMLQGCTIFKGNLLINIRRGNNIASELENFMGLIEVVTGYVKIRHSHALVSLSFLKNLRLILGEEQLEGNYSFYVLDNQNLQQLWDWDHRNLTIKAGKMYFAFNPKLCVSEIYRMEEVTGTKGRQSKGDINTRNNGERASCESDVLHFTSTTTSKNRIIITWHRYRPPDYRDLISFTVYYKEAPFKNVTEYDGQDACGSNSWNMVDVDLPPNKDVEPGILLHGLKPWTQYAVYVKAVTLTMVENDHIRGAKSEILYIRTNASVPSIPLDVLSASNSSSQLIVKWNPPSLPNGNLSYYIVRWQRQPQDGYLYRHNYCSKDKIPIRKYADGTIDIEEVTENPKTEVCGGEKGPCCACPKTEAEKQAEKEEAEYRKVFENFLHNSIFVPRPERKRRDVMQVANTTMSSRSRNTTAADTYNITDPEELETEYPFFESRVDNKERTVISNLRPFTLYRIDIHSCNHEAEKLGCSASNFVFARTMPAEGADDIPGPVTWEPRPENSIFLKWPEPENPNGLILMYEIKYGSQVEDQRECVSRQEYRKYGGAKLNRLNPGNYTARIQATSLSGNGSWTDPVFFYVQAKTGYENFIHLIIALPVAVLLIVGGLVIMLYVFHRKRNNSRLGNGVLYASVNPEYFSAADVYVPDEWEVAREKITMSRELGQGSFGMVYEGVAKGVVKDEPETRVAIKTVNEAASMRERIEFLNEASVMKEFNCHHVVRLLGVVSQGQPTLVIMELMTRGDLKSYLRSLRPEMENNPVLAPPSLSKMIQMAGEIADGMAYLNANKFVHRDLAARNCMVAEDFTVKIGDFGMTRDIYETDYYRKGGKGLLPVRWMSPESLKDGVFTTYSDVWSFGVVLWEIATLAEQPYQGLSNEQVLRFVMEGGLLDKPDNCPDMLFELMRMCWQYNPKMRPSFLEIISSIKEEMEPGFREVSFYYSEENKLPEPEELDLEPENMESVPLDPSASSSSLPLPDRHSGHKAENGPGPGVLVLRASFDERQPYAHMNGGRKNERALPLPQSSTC
T1 sequence (P08069 31-932 limits assumed): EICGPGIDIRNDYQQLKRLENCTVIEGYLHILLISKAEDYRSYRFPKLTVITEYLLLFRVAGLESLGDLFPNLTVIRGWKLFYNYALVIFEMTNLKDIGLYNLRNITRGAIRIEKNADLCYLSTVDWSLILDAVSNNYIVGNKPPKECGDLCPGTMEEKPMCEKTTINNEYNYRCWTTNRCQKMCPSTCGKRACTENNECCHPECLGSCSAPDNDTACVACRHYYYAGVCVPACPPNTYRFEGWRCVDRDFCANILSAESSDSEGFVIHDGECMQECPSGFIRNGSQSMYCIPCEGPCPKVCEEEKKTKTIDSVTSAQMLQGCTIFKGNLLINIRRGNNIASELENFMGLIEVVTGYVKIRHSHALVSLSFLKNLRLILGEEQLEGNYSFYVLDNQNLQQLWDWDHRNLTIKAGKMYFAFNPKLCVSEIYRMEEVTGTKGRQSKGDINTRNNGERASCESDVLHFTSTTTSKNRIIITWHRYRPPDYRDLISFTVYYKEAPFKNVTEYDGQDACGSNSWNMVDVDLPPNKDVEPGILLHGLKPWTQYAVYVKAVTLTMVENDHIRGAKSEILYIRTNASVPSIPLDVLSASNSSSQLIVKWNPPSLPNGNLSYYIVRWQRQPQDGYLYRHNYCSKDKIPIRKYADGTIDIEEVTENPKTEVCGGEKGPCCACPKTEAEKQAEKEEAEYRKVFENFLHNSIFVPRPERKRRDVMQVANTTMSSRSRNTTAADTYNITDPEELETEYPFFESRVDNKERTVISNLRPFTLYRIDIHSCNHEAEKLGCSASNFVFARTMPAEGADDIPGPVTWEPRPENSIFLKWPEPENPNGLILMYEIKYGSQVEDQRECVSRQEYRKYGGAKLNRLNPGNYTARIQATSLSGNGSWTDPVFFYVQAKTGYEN

B1: PHP1003-2 (antibody, human IgG1, kappa, L234A L235A, V domains shown)
VH: EVQLVQSGGGLVKPGGSLRLSCAASGFTFSSFAMHWVRQAPGKGLEWISVIDTRGATYYADSVKGRFTISRDNAKNSLYLQMNSLRAEDTAVYYCARLGNFYYGMDVWGQGTTVTVSS
VL: EIVLTQSPGTLSVSPGERATLSCRASQSIGSSLHWYQQKPGQAPRLLIKYASQSLSGIPDRFSGSGSGTDFTLTISRLEPEDFAVYYCHQSSRLPHTFGQGTKVEIKR
notes: Variable and constant regions are directly spliced
As usually defined, the Kd is the equilibrium constant for the complex coming apart. A higher Kd goes with a looser complex. For orientation: koff means the first-order rate constant of dissociation. Read a low koff as a long-lived complex. Broadly, the kon is the rate constant with which the complex forms. A high value points to fast association. As for B1, the “IC50 of inhibition of MCF-7 cell proliferation (CCK8, OD450)” value (“IC50 of inhibition … (CCK8, OD450)” below) with IGF-1R on MCF-7 cells was 3.93 µg/mL. In the assay with Human IGF-1R protein, this molecule displayed a Kd of 3.83 nM, a koff of 0.000874 s⁻¹ and a kon of 228000 M⁻¹ s⁻¹.

B2: PHP1003-1 (antibody, human IgG1, kappa, L234A L235A, V domains shown)
VH: QVQLQESGPGLVKPSGTLSLTCAVSGGSISSSNWWSWVRQPPGKGLEWIGEIYHSGSTNYNPSLKSRVTISVDKSKNQFSLKLSSVTAADTAVYYCARWTGRTDAFDIWGQGTMVTVSS
VL: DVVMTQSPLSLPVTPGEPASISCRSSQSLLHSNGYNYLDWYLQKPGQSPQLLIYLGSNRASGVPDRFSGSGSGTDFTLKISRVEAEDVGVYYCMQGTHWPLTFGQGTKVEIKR
notes: Variable and constant regions are directly spliced; also called anti-IGF-1R antibody PHP1003-1
With B2, in the assay with IGF-1R on MCF-7 cells, the “IC50 of inhibition … (CCK8, OD450)” value is 2.37 µg/mL. Also, in the assay with Human IGF-1R protein, the affinity, expressed as Kd, was 1.27 nM; the koff was 0.000347 s⁻¹; the kon stood at 274000 M⁻¹ s⁻¹.

B3: PHP1003-6 (antibody, human IgG1, kappa, L234A L235A, V domains shown)
VH: QVQLQESGGGVVQPGRSLRLSCSASGFTFSDYYMYWVRQAPGKGLEWVAYITNYGGSTYYPDTVKGRFTISRDNAKNTLFLQMDSLRPEDTGVYFCARQSNYDYDGWFAYWGQGTPVTVSS
VL: DIQLTQSPSSLSASVGDRVTITCKASQEVGTAVAWYQQKPGKAPKLLIYWASTRHTGVPSRFSGSGSGTDFTFTISSLQPEDIATYFCQQYSNYPLTFGQGTKVEIKR
notes: as for B1
With B3, the “IC50 of inhibition … (CCK8, OD450)” value in the assay with IGF-1R on MCF-7 cells is 3.81 µg/mL. In addition, in the assay with Human IGF-1R protein, binding was put at a Kd of 1.12 nM, the dissociation rate constant (koff) was 0.000472 s⁻¹ and the on-rate constant (kon) is 422000 M⁻¹ s⁻¹.

B4: PHP1003-4 (antibody, human IgG1, kappa, L234A L235A, V domains shown)
VH: EVQLVQSGAEVKKPGSSVKVSCKASGGTFSSYAISWVRQAPGQGLEWMGGIIPIFGTANYAQKFQGRVTITADKSTSTAYMELSSLRSEDTAVYYCARAPLRFLEWSTQDHYYYYYMDVWGKGTTVTVSS
VL: SSELTQDPAVSVALGQTVRITCQGDSLRSYYATWYQQKPGQAPILVIYGENKRPSGIPDRFSGSSSGNTASLTITGAQAEDEADYYCKSRDGSGQHLVFGGGTKLTVLR
notes: as for B1
As to B4, the “IC50 of inhibition … (CCK8, OD450)” value in the assay with IGF-1R on MCF-7 cells worked out at 4.05 µg/mL. In the assay with Human IGF-1R protein, this molecule showed a Kd of 5.91 nM, an off-rate (koff) of 0.00146 s⁻¹ and a kon of 247000 M⁻¹ s⁻¹.

B5: PHP1003-7 (antibody, human IgG1, kappa, L234A L235A, V domains shown)
VH: QVQLQESGPGLVKPSETLSLTCTVSGYSITGGYLWNWIRQPPGKGLEWIGYISYDGTNNYKPSLKDRVTISRDTSKNQFSLKLSSVTAADTAVYYCARYGRVFFDYWGQGTLVTVSS
VL: DIVMTQSPLSLPVTPGEPASISCRSSQSIVHSNGNTYLQWYLQKPGQSPQLLIYKVSNRLYGVPDRFSGSGSGTDFTLKISRVEAEDVGVYYCFQGSHVPWTFGQGTKVEIKR
notes: as for B1
Consider B5, for which, in the assay with IGF-1R on MCF-7 cells, the “IC50 of inhibition … (CCK8, OD450)” value was 2.14 µg/mL. Besides, in the assay with Human IGF-1R protein, binding was characterised by a dissociation constant (Kd) of 8.98 nM, the koff was determined as 0.000883 s⁻¹ and the on-rate (kon) came to 98300 M⁻¹ s⁻¹.

B6: PHP1003-5 (antibody, human IgG1, kappa, L234A L235A, V domains shown)
VH: EVQLLESGGGLVQPGGSLRLSCTASGFTFSSYAMNWVRQAPGKGLEWVSAISGSGGTTFYADSVKGRFTISRDNSRTTLYLQMNSLRAEDTAVYYCAKDLGWSDSYYYYYGMDVWGQGTTVTVSS
VL: DIQMTQFPSSLSASVGDRVTITCRASQGIRNDLGWYQQKPGKAPKRLIYAASRLHRGVPSRFSGSGSGTEFTLTISSLQPEDFATYYCLQHNSYPCSFGQGTKLEIKR
notes: as for B1
In the case of B6, in the assay with IGF-1R on MCF-7 cells, the “IC50 of inhibition … (CCK8, OD450)” value came out at 0.96 µg/mL. In the assay with Human IGF-1R protein, the Kd was 0.701 nM, the koff turned out to be 0.000396 s⁻¹ and the kon was 565000 M⁻¹ s⁻¹.
